# Key:
# [1] = target: biotin-collagelin; assay: SPR; biotin-collagelin on a streptavidin sensorchip, IgG 1.25 to 10 µg/mL
# [2] = target: biotin-collagelin; assay: SPR
# [3] = target: biotin-collagelin; assay: SPR; collagen injected on biotin-collagelin on a streptavidin sensorchip
# biotin-collagelin, sequence (peptide, as listed by the source): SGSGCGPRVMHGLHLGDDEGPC
substance,measurement,setting,value
anti-human platelet GPVI 9O12.2 IgG (antibody),Kd,[1],1 µM
murine laminin (Gibco),Kd,[2],18.3 µM
"type I equine fibrillar collagen (Collagen Horm, Nycomed)",RU bound,[3],10 RU

# — patent US20100303724A1
